Assay results as given in the MegaScale stability set (Tsuboyama et al. 2023).

B1: EEHEE_rd4_0363 (parent)
chain: VTVDIKGMEYHFDNPEEAKKFAERMAKELGGELKVENGTLKVE

Variants of: B1
Experiment: folding stability dG (cDNA display proteolysis); higher = more stable
Conditions: PBS, room temperature

Variant | folding stability dG [kcal/mol]
VTVDIKGMEYHFDNPEEAKKFAERMAKELGGELKVENGELKVE [T39E] | 1.2
VTVDIKGMEYHFDNPEEAKKFAERMAKELGGELKVENGHLKVE [T39H] | 1.93
VTVDIKGMEYHFDNPEEAKKFAERMAKELGGELKVENGGLKVE [T39G] | 1.4
VTVDIKGMEYHFDNPEEAKKFAERMAKELGGELKVENGALKVE [T39A] | 1.6
VTVDIKGMEYAFDNPEEAKKFAERMAKELGGELKVENGTLKVE [H11A] | 1.16
VTVDIKGMEYNFDNPEEAKKFAERMAKELGGELKVENGTLKVE [H11N] | 1.32
VTVDIKGMEYEFDNPEEAKKFAERMAKELGGELKVENGTLKVE [H11E] | 0.894
VTVDIKGMEYHFDNPEEAKKFAERMAKELVGELKVENGTLKVE [G30V] | 1.01
VTVDIKGMEYHFDNPEEAKKFAERMAKELAGELKVENGTLKVE [G30A] | 1.43
VTVDIKGMEYHFDNPEEAKKFAERMAKELGGELKVENYTLKVE [G38Y] | 0.501
VTVDIKGMEYHFDNPEEAKKFAERMAKELGGELKVENLTLKVE [G38L] | 1.02
VTVDIKGMEYHFDNPEEAKKFAERMAKELGGELKVENCTLKVE [G38C] | 1.98
VTVDIKGMEYHFDNPEEAKKFAERMAKELGGELKVENHTLKVE [G38H] | 1.25
VTVDIKGMEYHFDNPEEAKKFAERMAKELGGELKVENETLKVE [G38E] | 1.13
VTVDIKGMEYHFDNPEEAKKFAERMAKELGGELKVENRTLKVE [G38R] | 0.518
VTVDYKGMEYHFDNPEEAKKFAERMAKELGGELKVENGTLKVE [I5Y] | 1.52
VTVDRKGMEYHFDNPEEAKKFAERMAKELGGELKVENGTLKVE [I5R] | 0.036
VTVDSKGMEYHFDNPEEAKKFAERMAKELGGELKVENGTLKVE [I5S] | 0.289
VTVDTKGMEYHFDNPEEAKKFAERMAKELGGELKVENGTLKVE [I5T] | 0.201
VTVDFKGMEYHFDNPEEAKKFAERMAKELGGELKVENGTLKVE [I5F] | 1.44
VTVDIKGMEYHFDNPEHAKKFAERMAKELGGELKVENGTLKVE [E17H] | 1.2
VTVDIKGMEYHFDNPEAAKKFAERMAKELGGELKVENGTLKVE [E17A] | 1.7
VTVDIKGMEYHFDNPENAKKFAERMAKELGGELKVENGTLKVE [E17N] | 1.11
VTVDIKGMEYHFDNPEIAKKFAERMAKELGGELKVENGTLKVE [E17I] | 1.16

Variant | folding stability dG [kcal/mol]
VTVDIKGMEYHFDNPEDAKKFAERMAKELGGELKVENGTLKVE [E17D] | 2.08
VTVDIKGMEYHFDNPEEAKKFAERMCKELGGELKVENGTLKVE [A26C] | 2.06
VTVDIKGMEYHFDNPEEAAKFAERMAKELGGELKVENGTLKVE [K19A] | 1.65
VTVDIKGMEYHFDNPEEAKKFAERMAKELGGELKVENGTLKVP [E43P] | 1.16
VTVDIKGMEYHFDNPEEAKKFAERMAKELGGELKVENGTLKVW [E43W] | 2.64
VTVDIKGMEYHFDNPEEAKKFAERMAKELGGELKVLNGTLKVE [E36L] | 2.02
VTVDIKGMEYHFDNPEEAKKFAERMAKELGGELKVYNGTLKVE [E36Y] | 1.86
VTVDIKGMEYHFDNPTEAKKFAERMAKELGGELKVENGTLKVE [E16T] | 1.7
VTVDIKGMEYHFDNPVEAKKFAERMAKELGGELKVENGTLKVE [E16V] | 1.74
VTVDIKGMEYHFDNPIEAKKFAERMAKELGGELKVENGTLKVE [E16I] | 1.71
VTVDIKGMEYHFDNPCEAKKFAERMAKELGGELKVENGTLKVE [E16C] | 2.17
VTVDIKGMEYHFDNPFEAKKFAERMAKELGGELKVENGTLKVE [E16F] | 1.7
VTVDIKGMEYHFDNPEEAKKFAEQMAKELGGELKVENGTLKVE [R24Q] | 2.04
VTVDIKGMEYHFDNPEEAKKFAEIMAKELGGELKVENGTLKVE [R24I] | 1.5
VTVDIKGMEYHFDNPEEAKKFAECMAKELGGELKVENGTLKVE [R24C] | 2.83
VTVDIKGMEYHFDNPEEAKKFAELMAKELGGELKVENGTLKVE [R24L] | 1.99
VTVDIKGMEYHFDNPEEAKKFAEPMAKELGGELKVENGTLKVE [R24P] | -0.281
VTVDIKGMEYHFDNPEEAKKFAETMAKELGGELKVENGTLKVE [R24T] | 1.75
VTVDIKGMEYHFDNPEEAKWFAERMAKELGGELKVENGTLKVE [K20W] | 1.67
VTVDIKGMEYHFDNPEEAKSFAERMAKELGGELKVENGTLKVE [K20S] | 1.95
VTVDIKGMEYHFDNPEEAKIFAERMAKELGGELKVENGTLKVE [K20I] | 2.08
VTVDIKGMEYHFDNPEEAKCFAERMAKELGGELKVENGTLKVE [K20C] | 2.28
VTVDIKGMEYHFDNPEEAKNFAERMAKELGGELKVENGTLKVE [K20N] | 1.77
VTVDIKGMEYHFDNPEEAKFFAERMAKELGGELKVENGTLKVE [K20F] | 1.62

Variant | folding stability dG [kcal/mol]
VTVDIKGMEYHFDNMEEAKKFAERMAKELGGELKVENGTLKVE [P15M] | 2.86
VTVDIKGMEYHFDNKEEAKKFAERMAKELGGELKVENGTLKVE [P15K] | 1.45
VTVDIKGMEYHFDNPEEAKKFAERMAKPLGGELKVENGTLKVE [E28P] | 0.477
VTVDIKGMEYHFDNPEEAKKFAERMAKKLGGELKVENGTLKVE [E28K] | 1.92
VTWDIKGMEYHFDNPEEAKKFAERMAKELGGELKVENGTLKVE [V3W] | 0.119
VTEDIKGMEYHFDNPEEAKKFAERMAKELGGELKVENGTLKVE [V3E] | -0.171
VTGDIKGMEYHFDNPEEAKKFAERMAKELGGELKVENGTLKVE [V3G] | 0.059
VTVDIKGIEYHFDNPEEAKKFAERMAKELGGELKVENGTLKVE [M8I] | 2.46
VTVDIKGGEYHFDNPEEAKKFAERMAKELGGELKVENGTLKVE [M8G] | 0.564
VTVDIKGWEYHFDNPEEAKKFAERMAKELGGELKVENGTLKVE [M8W] | 1.78
VTVDIPGMEYHFDNPEEAKKFAERMAKELGGELKVENGTLKVE [K6P] | 0.366
VTVDILGMEYHFDNPEEAKKFAERMAKELGGELKVENGTLKVE [K6L] | 2.96
VTVDIRGMEYHFDNPEEAKKFAERMAKELGGELKVENGTLKVE [K6R] | 2.17
VTVDIWGMEYHFDNPEEAKKFAERMAKELGGELKVENGTLKVE [K6W] | 2.62
VTVDIKGMEYHFDNPEEAKKFAERMAKELGGELKVEDGTLKVE [N37D] | 1.63
VTVDIKGMEYHFDNPEEAKKFAERMAKELGGELKVETGTLKVE [N37T] | 1.18
VTVDIKGMEYHFDNPEEAKKFAERMAKELGGELKVEKGTLKVE [N37K] | 1.45
VTVDIKGMEYHFDNPEEAKKFAERMAKELGGELKVENGTLKLE [V42L] | 1.74
VTVDIKGMEYHFDNPEEAKKFAERMAKELGGELKVENGTLKAE [V42A] | 0.786
VVVDIKGMEYHFDNPEEAKKFAERMAKELGGELKVENGTLKVE [T2V] | 2.21
VHVDIKGMEYHFDNPEEAKKFAERMAKELGGELKVENGTLKVE [T2H] | 1.26
VRVDIKGMEYHFDNPEEAKKFAERMAKELGGELKVENGTLKVE [T2R] | 1.7
VFVDIKGMEYHFDNPEEAKKFAERMAKELGGELKVENGTLKVE [T2F] | 1.65
VNVDIKGMEYHFDNPEEAKKFAERMAKELGGELKVENGTLKVE [T2N] | 1.1

Variant | folding stability dG [kcal/mol]
VTVDIKGMFYHFDNPEEAKKFAERMAKELGGELKVENGTLKVE [E9F] | 2.66
VTVDIKGMLYHFDNPEEAKKFAERMAKELGGELKVENGTLKVE [E9L] | 3.44
VTVDIKGMEYHFDNPEEAKKFAERMAKELGDELKVENGTLKVE [G31D] | 0.935
VTVDIKGMEYHFDNPEEAKKFAERMAKELGEELKVENGTLKVE [G31E] | 1.23
VTVDIKGMEYHFDNPEEAKKFAERMAKELGIELKVENGTLKVE [G31I] | 1.88
VTVDIKGMEYHFDNPEEAKKFAERMAKELGMELKVENGTLKVE [G31M] | 2.32
VTVDIKGMEYHFDNPEEAKKFAERMAKELGWELKVENGTLKVE [G31W] | 2.33
VTVDIKMMEYHFDNPEEAKKFAERMAKELGGELKVENGTLKVE [G7M] | 0.304
VTVDIKKMEYHFDNPEEAKKFAERMAKELGGELKVENGTLKVE [G7K] | 0.294
VTVDIKWMEYHFDNPEEAKKFAERMAKELGGELKVENGTLKVE [G7W] | 0.811
VTVDIKGMEYHFDNPEEAKKFAERMAKELGGEWKVENGTLKVE [L33W] | 1.78
VTVDIKGMEYHFDNPEEAKKFAERMAKELGGEKKVENGTLKVE [L33K] | 0.659
VTVDIKGMEYHIDNPEEAKKFAERMAKELGGELKVENGTLKVE [F12I] | -0.023
VTVDIKGMEYHGDNPEEAKKFAERMAKELGGELKVENGTLKVE [F12G] | -0.303
VTVDIKGMEYHFSNPEEAKKFAERMAKELGGELKVENGTLKVE [D13S] | 2
VTVDIKGMEYHFDNPEEQKKFAERMAKELGGELKVENGTLKVE [A18Q] | -0.376
VTVDIKGMEYHFDNPEEWKKFAERMAKELGGELKVENGTLKVE [A18W] | 0.824
VTVDIKGMEYHFDNPEEAKKFAERMAKELGGELKVENGTLSVE [K41S] | 1.45
VTVDIKGMEYHFDNPEEAKKFAERMAKELGGELKVENGTLDVE [K41D] | 0.86
VTVDIKGMEYHFDNPEEAKKFAERMAKELGGELKVENGTLEVE [K41E] | 0.957
VTVDIKGMEYHFDNPEEAKKFRERMAKELGGELKVENGTLKVE [A22R] | 1.05
VTVDIKGMEYHFDNPEEAKKFCERMAKELGGELKVENGTLKVE [A22C] | 1.54
VTVDIKGMEYHFDNPEEAKKFVERMAKELGGELKVENGTLKVE [A22V] | 1.26
VTVDIKGMEYHFDNPEEAKKFAERMAKEAGGELKVENGTLKVE [L29A] | 0.915

Variant | folding stability dG [kcal/mol]
VTVDIKGMEYHFDNPEEAKKFAERMAKENGGELKVENGTLKVE [L29N] | 1.05
VTVDIKGMEYHFDNPEEAKKFAERMAAELGGELKVENGTLKVE [K27A] | 2.15
VTVDIKGMEYHFDNPEEAKKFAERMATELGGELKVENGTLKVE [K27T] | 1.7
VTVDIKGMEYHFDNPEEAKKFAERMACELGGELKVENGTLKVE [K27C] | 2.48
VTVDIKGMEYHFDNPEEAKKFAERMADELGGELKVENGTLKVE [K27D] | 1.56
VTVDIKGMEYHFDNPEEAKKFAERMASELGGELKVENGTLKVE [K27S] | 1.81
VTVDIKGMEYHFDNPEEAKKFAERQAKELGGELKVENGTLKVE [M25Q] | 1.05
VTVDIKGMEYHFDNPEEAKKFAERVAKELGGELKVENGTLKVE [M25V] | 1.44
VTVDIKGMEYHFDNPEEAKKFAERMAKELGGQLKVENGTLKVE [E32Q] | 2.41
VTVDIKGMEYHFDNPEEAKKFAERMAKELGGLLKVENGTLKVE [E32L] | 2.32
VTVDIKGMEYHFDNPEEAKKFASRMAKELGGELKVENGTLKVE [E23S] | 1.08
VTVDIKGMEYHFDNPEEAKKFAWRMAKELGGELKVENGTLKVE [E23W] | 1.4
VTVDIKGMEYHFDNPEEAKKFAQRMAKELGGELKVENGTLKVE [E23Q] | 1.65
CTVDIKGMEYHFDNPEEAKKFAERMAKELGGELKVENGTLKVE [V1C] | 2.67
ATVDIKGMEYHFDNPEEAKKFAERMAKELGGELKVENGTLKVE [V1A] | 1.48
PTVDIKGMEYHFDNPEEAKKFAERMAKELGGELKVENGTLKVE [V1P] | 0.612
KTVDIKGMEYHFDNPEEAKKFAERMAKELGGELKVENGTLKVE [V1K] | 1.2
VTVKIKGMEYHFDNPEEAKKFAERMAKELGGELKVENGTLKVE [D4K] | 2.77
VTVQIKGMEYHFDNPEEAKKFAERMAKELGGELKVENGTLKVE [D4Q] | 2.75
VTVDIKGMEYHFDNPEEAKKFAERMAKELGGELAVENGTLKVE [K34A] | 1.33
VTVDIKGMEYHFDNPEEAKKFAERMAKELGGELIVENGTLKVE [K34I] | 2.28
VTVDIKGMEYHFDNPEEAKKFAERMAKELGGELMVENGTLKVE [K34M] | 1.66
